Target: calmodulin (full-length wild-type CaM) (human, UniProt P0DP23 1-149)
Assay: circular dichroism

- binding result: binds
B1: pCaN, peptide encompassing the CaM-binding domain of calcineurin A (residues 391-414) (peptide)
peptide: not shown

From article PMC4900146 (Biochemistry, 2016)
